This note sets out measurements from patent publication US20260373262 (published 2026).

Some results are limits rather than exact numbers.

The assay has as its target T1, EPHB6 (human, UniProt O15197).
T1 chain: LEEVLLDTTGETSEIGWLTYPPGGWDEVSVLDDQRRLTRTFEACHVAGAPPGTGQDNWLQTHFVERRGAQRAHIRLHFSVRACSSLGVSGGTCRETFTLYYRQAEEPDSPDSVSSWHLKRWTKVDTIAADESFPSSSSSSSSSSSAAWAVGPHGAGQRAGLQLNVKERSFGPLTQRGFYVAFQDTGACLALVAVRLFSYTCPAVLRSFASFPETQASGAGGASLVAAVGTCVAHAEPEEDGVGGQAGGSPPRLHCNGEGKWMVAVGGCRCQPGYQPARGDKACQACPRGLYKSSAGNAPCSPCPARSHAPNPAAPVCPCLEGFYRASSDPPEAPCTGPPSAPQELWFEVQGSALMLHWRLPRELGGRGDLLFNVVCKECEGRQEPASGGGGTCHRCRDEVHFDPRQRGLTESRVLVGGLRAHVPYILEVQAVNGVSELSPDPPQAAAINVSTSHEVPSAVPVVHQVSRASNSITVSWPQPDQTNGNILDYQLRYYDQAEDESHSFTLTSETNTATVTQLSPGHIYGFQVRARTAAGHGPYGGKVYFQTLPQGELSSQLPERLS
The assay is described as follows: FACS.

B1: hLFTT-1 VH4/VL5 (antibody, V domains shown)
VH: QIQLVQSGSELKKPGASVKVSCKASGYTFTTYGMSWVRQAPGQGLKWMGWIYTYSGVPTYADDLTGRFVFSLDTSVSTAYLQISSLKAEDTATYYCARVRDGYYRYAMDYWGRGTLVTVSS
VL: DIQMTQSPSSLSVSVGDRVTITCKASQDINRYIAWYQQQPGKAPKLLIHFTSTLQSGVPSRFSGSGSGTDFTFTISSLQPEDIATYYCLQYDDLRTFGQGTKLEIK
B1 gave an EC50 of over 300 µg/mL.
